Laboratory results as given in the supplement of paper PMC10065799, “High-throughput profiling of sequence recognition by tyrosine kinases and SH2 domains using bacterial peptide display” (eLife, 2023).

Legend:
FGFR1 = FGFR1 (UniProt P11362); assay: phosphorylation enrichment, bacterial display (enrichment ratio); higher = better substrate or ligand; peptides without Tyr show the background
EPHB1 = EPHB1 (UniProt P54762); assay: as above
Fyn = Fyn (UniProt P06241); assay: as above
EPHB2 = EPHB2 (UniProt P29323); assay: as above
Hck = Hck (UniProt P08631); assay: as above
Sequence of Hck (P08631 whole entry, looked up): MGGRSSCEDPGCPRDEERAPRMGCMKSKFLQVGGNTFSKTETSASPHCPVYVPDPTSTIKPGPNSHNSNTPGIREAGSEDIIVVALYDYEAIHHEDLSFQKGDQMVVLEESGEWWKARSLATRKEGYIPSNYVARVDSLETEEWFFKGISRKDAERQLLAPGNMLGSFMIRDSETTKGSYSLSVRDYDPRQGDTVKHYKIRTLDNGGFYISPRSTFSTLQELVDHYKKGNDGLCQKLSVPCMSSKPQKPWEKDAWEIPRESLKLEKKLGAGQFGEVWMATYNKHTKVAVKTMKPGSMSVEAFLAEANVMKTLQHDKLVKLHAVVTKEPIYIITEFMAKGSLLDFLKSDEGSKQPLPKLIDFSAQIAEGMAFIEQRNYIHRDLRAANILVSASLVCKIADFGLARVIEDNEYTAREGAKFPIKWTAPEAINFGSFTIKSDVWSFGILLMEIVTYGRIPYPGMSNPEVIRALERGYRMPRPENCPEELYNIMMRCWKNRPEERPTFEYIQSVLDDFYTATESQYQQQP

AncSZ = assay: as above
MERTK = MERTK (UniProt Q12866); assay: as above
Sequence of MERTK (Q12866 whole entry, looked up): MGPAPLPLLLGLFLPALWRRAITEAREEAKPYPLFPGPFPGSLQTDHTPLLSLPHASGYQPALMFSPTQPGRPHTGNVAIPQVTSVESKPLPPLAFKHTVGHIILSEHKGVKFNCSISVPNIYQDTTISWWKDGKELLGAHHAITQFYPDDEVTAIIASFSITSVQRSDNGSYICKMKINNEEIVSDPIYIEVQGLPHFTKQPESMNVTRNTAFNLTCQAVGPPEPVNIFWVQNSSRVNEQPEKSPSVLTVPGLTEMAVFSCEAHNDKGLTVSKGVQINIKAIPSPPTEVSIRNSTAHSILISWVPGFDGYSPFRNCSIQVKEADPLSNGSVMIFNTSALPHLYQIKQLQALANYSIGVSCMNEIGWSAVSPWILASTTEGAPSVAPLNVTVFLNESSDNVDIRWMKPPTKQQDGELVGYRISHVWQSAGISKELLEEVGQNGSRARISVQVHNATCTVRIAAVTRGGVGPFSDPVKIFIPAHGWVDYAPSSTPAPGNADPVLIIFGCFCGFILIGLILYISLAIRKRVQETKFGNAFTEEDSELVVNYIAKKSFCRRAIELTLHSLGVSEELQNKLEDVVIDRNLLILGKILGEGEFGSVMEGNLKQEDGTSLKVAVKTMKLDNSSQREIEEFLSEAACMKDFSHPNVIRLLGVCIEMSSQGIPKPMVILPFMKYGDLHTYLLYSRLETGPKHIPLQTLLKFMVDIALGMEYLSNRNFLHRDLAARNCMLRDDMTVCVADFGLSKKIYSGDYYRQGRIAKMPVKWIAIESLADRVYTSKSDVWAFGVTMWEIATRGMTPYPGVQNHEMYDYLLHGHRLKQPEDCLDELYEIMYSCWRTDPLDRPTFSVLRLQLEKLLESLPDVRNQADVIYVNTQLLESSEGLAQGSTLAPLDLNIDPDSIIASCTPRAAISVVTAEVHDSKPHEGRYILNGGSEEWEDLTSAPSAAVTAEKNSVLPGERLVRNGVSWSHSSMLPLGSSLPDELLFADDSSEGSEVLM

Fer (mouse) = assay: as above
FGFR3 = FGFR3 (UniProt P22607); assay: as above
Sequence of FGFR3 (P22607 whole entry, looked up): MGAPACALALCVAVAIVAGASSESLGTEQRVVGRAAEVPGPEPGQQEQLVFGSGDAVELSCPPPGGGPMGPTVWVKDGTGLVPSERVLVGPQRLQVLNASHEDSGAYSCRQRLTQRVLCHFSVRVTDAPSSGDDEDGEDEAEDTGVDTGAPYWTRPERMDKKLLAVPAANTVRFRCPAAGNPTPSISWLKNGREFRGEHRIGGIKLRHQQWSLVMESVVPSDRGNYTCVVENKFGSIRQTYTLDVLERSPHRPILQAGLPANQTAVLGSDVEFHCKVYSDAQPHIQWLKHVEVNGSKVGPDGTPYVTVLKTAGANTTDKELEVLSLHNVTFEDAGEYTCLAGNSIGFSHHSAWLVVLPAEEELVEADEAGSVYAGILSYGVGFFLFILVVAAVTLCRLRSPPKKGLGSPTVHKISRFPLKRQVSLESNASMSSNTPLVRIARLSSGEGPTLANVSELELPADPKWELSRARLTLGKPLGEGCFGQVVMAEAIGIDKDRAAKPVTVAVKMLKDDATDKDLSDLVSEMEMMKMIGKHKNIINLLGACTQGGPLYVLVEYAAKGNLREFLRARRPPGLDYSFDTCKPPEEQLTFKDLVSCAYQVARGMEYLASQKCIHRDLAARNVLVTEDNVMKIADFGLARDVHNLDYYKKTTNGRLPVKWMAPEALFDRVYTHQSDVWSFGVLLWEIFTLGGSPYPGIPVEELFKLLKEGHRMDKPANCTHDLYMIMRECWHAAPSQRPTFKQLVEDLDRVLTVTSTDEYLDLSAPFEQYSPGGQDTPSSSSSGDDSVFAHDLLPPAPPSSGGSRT

Fes = Fes (UniProt P07332); assay: as above
Sequence of Fes (P07332 whole entry, looked up): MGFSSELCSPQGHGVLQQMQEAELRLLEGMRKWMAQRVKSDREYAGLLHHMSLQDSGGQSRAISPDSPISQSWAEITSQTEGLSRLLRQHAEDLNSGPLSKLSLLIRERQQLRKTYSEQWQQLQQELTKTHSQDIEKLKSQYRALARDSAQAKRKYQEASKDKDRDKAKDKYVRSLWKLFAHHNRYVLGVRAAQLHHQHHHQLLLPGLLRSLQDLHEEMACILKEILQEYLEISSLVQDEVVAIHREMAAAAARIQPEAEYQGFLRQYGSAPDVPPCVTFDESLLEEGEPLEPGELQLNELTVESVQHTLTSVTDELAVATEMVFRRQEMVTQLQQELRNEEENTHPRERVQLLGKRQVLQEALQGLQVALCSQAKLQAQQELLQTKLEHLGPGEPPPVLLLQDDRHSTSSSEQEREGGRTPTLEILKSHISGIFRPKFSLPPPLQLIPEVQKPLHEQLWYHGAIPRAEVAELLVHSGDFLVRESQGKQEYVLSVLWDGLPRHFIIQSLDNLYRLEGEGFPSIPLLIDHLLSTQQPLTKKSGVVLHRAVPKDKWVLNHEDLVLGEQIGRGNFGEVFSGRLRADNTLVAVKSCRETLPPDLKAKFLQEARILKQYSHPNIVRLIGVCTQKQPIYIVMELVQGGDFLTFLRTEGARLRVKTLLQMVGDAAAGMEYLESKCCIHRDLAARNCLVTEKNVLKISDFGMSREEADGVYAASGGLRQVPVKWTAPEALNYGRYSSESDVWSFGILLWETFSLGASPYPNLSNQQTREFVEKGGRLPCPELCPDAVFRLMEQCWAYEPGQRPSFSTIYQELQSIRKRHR

Jak2 = Jak2 (UniProt O60674); assay: as above
Sequence of Jak2 (O60674 whole entry, looked up): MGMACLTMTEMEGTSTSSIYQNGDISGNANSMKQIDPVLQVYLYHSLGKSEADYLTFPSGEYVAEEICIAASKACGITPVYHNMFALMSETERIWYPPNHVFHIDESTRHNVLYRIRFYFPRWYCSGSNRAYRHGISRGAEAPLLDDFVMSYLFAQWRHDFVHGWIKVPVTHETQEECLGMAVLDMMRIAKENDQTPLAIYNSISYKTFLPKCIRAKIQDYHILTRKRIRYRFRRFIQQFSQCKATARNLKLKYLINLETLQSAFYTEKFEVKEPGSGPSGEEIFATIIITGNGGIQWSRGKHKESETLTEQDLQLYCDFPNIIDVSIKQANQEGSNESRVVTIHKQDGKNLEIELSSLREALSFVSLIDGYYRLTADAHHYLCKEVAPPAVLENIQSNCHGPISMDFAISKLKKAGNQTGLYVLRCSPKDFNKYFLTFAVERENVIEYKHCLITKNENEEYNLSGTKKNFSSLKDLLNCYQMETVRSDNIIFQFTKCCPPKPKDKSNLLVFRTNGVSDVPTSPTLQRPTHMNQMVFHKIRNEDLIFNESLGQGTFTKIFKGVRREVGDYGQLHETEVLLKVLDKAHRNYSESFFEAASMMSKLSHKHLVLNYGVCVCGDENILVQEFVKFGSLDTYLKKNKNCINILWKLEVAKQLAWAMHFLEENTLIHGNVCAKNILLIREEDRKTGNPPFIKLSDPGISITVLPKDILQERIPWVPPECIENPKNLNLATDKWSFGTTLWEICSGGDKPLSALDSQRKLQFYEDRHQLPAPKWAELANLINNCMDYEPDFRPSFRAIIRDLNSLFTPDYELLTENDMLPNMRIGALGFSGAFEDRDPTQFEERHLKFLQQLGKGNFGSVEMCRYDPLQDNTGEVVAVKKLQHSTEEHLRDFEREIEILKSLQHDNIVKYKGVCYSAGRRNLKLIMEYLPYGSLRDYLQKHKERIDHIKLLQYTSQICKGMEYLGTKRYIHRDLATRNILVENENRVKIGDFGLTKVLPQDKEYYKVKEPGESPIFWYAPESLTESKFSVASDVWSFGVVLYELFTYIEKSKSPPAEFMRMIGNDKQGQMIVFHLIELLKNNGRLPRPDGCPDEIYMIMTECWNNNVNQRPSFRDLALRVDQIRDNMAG

c-Abl (mouse) = assay: as above
c-Src = assay: as above
Grb2 SH2 = Grb2 SH2 (UniProt P62993); assay: SH2 binding enrichment of the phosphorylated peptide, bacterial display (enrichment ratio); higher = better substrate or ligand; peptides without Tyr show the background
Sequence of Grb2 SH2 (P62993 whole entry, looked up): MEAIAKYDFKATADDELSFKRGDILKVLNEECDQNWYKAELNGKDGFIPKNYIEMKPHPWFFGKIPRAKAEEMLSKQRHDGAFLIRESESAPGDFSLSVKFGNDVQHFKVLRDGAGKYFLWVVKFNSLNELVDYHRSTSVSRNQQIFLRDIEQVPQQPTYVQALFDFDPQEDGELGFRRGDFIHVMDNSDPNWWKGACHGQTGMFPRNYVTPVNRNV

c-Src SH2 = assay: as above
SHP2-C SH2 = assay: as above
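Wherever SH2 binding enrichment of the phosphorylated peptide, bacterial display is given: peptide library displayed on the E. coli surface as eCPX fusions, selected cells deep-sequenced, score is each peptide's frequency after selection divided by its frequency in the input.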
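Wherever phosphorylation enrichment, bacterial display is given: 11-residue human phosphosite peptides and single-mutation variants displayed on the E. coli surface, counted by deep sequencing, each peptide's frequency after selection divided by its frequency in the unselected input library; frequency after pTyr selection over input frequency; kinase dosed for 20-30% of maximal phosphorylation in three min.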

Sequence of Fyn (P06241 whole entry, looked up): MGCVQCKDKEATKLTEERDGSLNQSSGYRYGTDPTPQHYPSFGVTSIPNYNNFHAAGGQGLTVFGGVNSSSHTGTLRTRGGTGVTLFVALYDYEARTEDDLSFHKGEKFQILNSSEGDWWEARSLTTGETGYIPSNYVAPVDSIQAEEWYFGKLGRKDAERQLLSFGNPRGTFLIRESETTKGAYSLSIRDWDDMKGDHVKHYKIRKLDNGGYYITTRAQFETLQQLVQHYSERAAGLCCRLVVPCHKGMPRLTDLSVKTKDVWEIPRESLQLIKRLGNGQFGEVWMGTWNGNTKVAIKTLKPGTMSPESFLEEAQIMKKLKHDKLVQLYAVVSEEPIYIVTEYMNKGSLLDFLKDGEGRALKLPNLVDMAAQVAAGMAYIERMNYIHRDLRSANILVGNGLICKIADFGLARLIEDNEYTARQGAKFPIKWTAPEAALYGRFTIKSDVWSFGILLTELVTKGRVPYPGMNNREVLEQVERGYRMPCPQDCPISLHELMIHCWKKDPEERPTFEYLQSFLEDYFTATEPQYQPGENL

Row | Sequence | phosphorylation enrichment (FGFR1) | phosphorylation enrichment (EPHB1) | phosphorylation enrichment (Fyn) | phosphorylation enrichment (EPHB2) | phosphorylation enrichment (Hck) | phosphorylation enrichment (AncSZ) | phosphorylation enrichment (MERTK) | phosphorylation enrichment (Fer (mouse)) | phosphorylation enrichment (FGFR3) | phosphorylation enrichment (Fes) | phosphorylation enrichment (Jak2) | phosphorylation enrichment (c-Abl (mouse)) | phosphorylation enrichment (c-Src) | SH2 binding enrichment (Grb2 SH2) | SH2 binding enrichment (c-Src SH2) | SH2 binding enrichment (SHP2-C SH2)
1 | IETGRYEILTE | 0.491 | 0.595 | 0.488 | 0.762 | 0.487 | 1.07 | 0.533 | 0.464 | 0.632 | 1 | 0.951 | 0.854 | 0.479 | 0.883 | 21.6 | 0.697
2 | AEYGLYRAMVR [VSX2_Y222_G223R] | 0.577 | 2.89 | 9.03 | 3.62 | 9.69 | 0.814 | 2.38 | 0.603 | 0.679 | 0.768 | 0.75 | 7.87 | 6.94 | 0.855 | 0.566 | 0.619
3 | FSALDYKIFFF [WDPCP_Y210_L205F_YF] | 0.6 | 0.675 | 0.416 | 0.54 | 0.504 | 1.57 | 0.468 | 0.541 | 0.981 | 1.64 | 1.69 | 1.13 | 0.67 | 0.731 | 0.449 | 0.401
4 | FADTAYNYRHG [PAH_Y166_I164T] | 0.899 | 0.533 | 0.456 | 0.362 | 0.514 | 0.672 | 0.35 | 0.552 | 0.601 | 0.831 | 0.509 | 0.46 | 0.449 | 0.723 | 0.421 | 0.973
5 | YEDTLYTVLHR [UNC13D_Y61_A59T] | 2.08 | 12.2 | 7.58 | 9.31 | 8.16 | 2.9 | 8.84 | 9.1 | 2.09 | 1.41 | 1.39 | 3.32 | 6.38 | 0.761 | 2.26 | 0.525
6 | PARLEYFENEK [IRS1_Y46_YF] | 1.03 | 0.714 | 0.471 | 0.777 | 0.709 | 1.35 | 0.784 | 0.661 | 0.957 | 1.61 | 2 | 0.999 | 0.684 | 0.834 | 0.647 | 0.817
7 | EEGESHVCSSD [DCX_Y125_Y125H] | 0.518 | 0.465 | 0.54 | 0.545 | 0.497 | 0.96 | 0.528 | 0.519 | 0.573 | 1.07 | 0.945 | 0.673 | 0.525 | 1.25 | 0.623 | 0.83
8 | MVIPNYSSRTE [UROC1_Y185] | 0.406 | 0.477 | 0.406 | 0.462 | 0.329 | 0.535 | 0.425 | 0.435 | 0.416 | 0.642 | 0.486 | 0.438 | 0.446 | 0.711 | 0.55 | 0.488
9 | AKQVGYENAGT [PC_Y304] | 0.394 | 0.511 | 0.439 | 0.446 | 0.464 | 0.633 | 0.432 | 0.461 | 0.549 | 0.614 | 0.467 | 0.447 | 0.433 | 4.11 | 1.19 | 0.646
10 | FEEDSYSHIMA [FDPS_Y388_YF] | 1.01 | 0.551 | 0.634 | 0.593 | 0.972 | 1.33 | 0.458 | 1.07 | 1.01 | 1.23 | 1.06 | 0.671 | 0.721 | 0.718 | 0.864 | 0.479
11 | ADARMYGVHPW [PLP1_Y207_L210H] | 0.38 | 0.458 | 4.81 | 0.493 | 2.42 | 0.604 | 0.391 | 0.355 | 0.481 | 0.726 | 0.521 | 0.53 | 3.64 | 0.653 | 0.465 | 0.477
12 | QKNVSYVSRVS [TASOR_Y1043_T1046R] | 0.782 | 0.683 | 0.438 | 0.564 | 0.477 | 1.2 | 0.537 | 0.764 | 0.894 | 0.739 | 0.69 | 0.547 | 0.457 | 0.853 | 0.369 | 1.21
13 | EESREYDRLYE [PIK3R1_Y463_K459E] | 0.708 | 0.761 | 0.751 | 0.7 | 0.865 | 1.42 | 0.465 | 0.641 | 1.19 | 1.44 | 1.45 | 1.02 | 0.714 | 0.671 | 7.14 | 0.701
14 | SCPANYFAFKI [FAM3D_Y65_P60S] | 7.58 | 3.97 | 0.901 | 2.09 | 1.05 | 1.16 | 7.13 | 0.785 | 5.33 | 1.08 | 5.24 | 3.31 | 2.62 | 1.12 | 0.823 | 0.996
15 | LIYTNYEAGKD [GSTP1_Y112] | 1.78 | 6.63 | 7.8 | 8.11 | 5.36 | 1.23 | 7.41 | 5.02 | 1.64 | 1.01 | 0.88 | 7.84 | 7.03 | 1.09 | 0.503 | 0.568
16 | ENQEIYQKAFD [KPNA1_Y493] | 0.522 | 0.579 | 0.866 | 0.576 | 1.2 | 1.43 | 0.616 | 0.686 | 0.643 | 1.15 | 1.08 | 1.03 | 1.45 | 0.83 | 0.47 | 0.737
17 | CTLNVYRQLHN [LUZP1_Y1036_S1034N] | 0.558 | 0.753 | 0.459 | 0.585 | 0.551 | 1.05 | 0.475 | 0.516 | 0.749 | 1.28 | 1 | 0.739 | 0.473 | 0.796 | 0.382 | 0.708

Row | Sequence | phosphorylation enrichment (FGFR1) | phosphorylation enrichment (EPHB1) | phosphorylation enrichment (Fyn) | phosphorylation enrichment (EPHB2) | phosphorylation enrichment (Hck) | phosphorylation enrichment (AncSZ) | phosphorylation enrichment (MERTK) | phosphorylation enrichment (Fer (mouse)) | phosphorylation enrichment (FGFR3) | phosphorylation enrichment (Fes) | phosphorylation enrichment (Jak2) | phosphorylation enrichment (c-Abl (mouse)) | phosphorylation enrichment (c-Src) | SH2 binding enrichment (Grb2 SH2) | SH2 binding enrichment (c-Src SH2) | SH2 binding enrichment (SHP2-C SH2)
18 | LGSWTYPKTVS [ROS1_Y144_T145P] | 0.842 | 0.402 | 0.741 | 0.432 | 0.577 | 0.85 | 0.664 | 0.453 | 0.604 | 1.12 | 0.734 | 0.732 | 0.415 | 0.813 | 0.496 | 0.805
19 | QAKRKYQEVSK [FES_Y156_A159V] | 0.424 | 0.231 | 0.365 | 0.443 | 0.373 | 0.463 | 0.311 | 0.233 | 0.37 | 0.257 | 0.227 | 0.326 | 0.193 | 0.957 | 0.616 | 0.448
20 | NTGLEYIKFTW [HRH1_Y386_D385E] | 0.76 | 0.572 | 0.531 | 0.633 | 0.58 | 1.16 | 0.474 | 0.449 | 0.851 | 1.09 | 1.37 | 0.657 | 0.495 | 1.11 | 0.614 | 0.778
21 | GIVEDYRPPFF [ACVRL1_Y421_YF] | 0.468 | 0.497 | 0.464 | 0.498 | 0.413 | 0.825 | 0.417 | 0.443 | 0.667 | 0.899 | 0.814 | 0.701 | 0.42 | 0.818 | 0.521 | 0.616
22 | NFADPYRQLQF [CTNND2_Y503_YF] | 0.516 | 0.494 | 0.473 | 0.502 | 0.539 | 0.765 | 0.454 | 0.436 | 0.557 | 0.826 | 0.667 | 0.654 | 0.563 | 0.878 | 0.555 | 1.04
23 | KLKRSYSSRDI [USP8_Y717_P720R] | 0.289 | 0.351 | 0.329 | 0.409 | 0.327 | 0.45 | 0.432 | 0.371 | 0.368 | 0.464 | 0.51 | 0.51 | 0.458 | 1.13 | 0.531 | 0.651
24 | KNILCYIQGGS [HYDIN_Y4610] | 0.585 | 0.711 | 0.436 | 0.748 | 0.594 | 1.13 | 0.458 | 0.522 | 0.761 | 1.43 | 1.27 | 0.977 | 0.504 | 0.617 | 0.328 | 0.598
25 | DFPGNYSGFDD [POLR1C_Y33_YF] | 0.456 | 0.927 | 0.55 | 0.531 | 0.481 | 0.858 | 0.376 | 0.408 | 0.637 | 0.899 | 0.676 | 0.588 | 0.548 | 0.839 | 0.806 | 0.815
26 | SNVEQYQAMVT [TPR_Y965] | 0.416 | 0.443 | 0.506 | 0.444 | 0.424 | 0.754 | 0.355 | 0.457 | 0.541 | 0.692 | 0.846 | 0.487 | 0.384 | 0.754 | 0.688 | 0.411
27 | RVAFQYGVTDL [MYBPC3_Y340_I336V] | 0.456 | 0.461 | 0.49 | 0.827 | 0.599 | 1.16 | 0.471 | 0.576 | 0.842 | 1.27 | 1.08 | 0.764 | 0.493 | 0.697 | 0.545 | 0.432
28 | PVFIKYLPEWT [PSEN1_Y240_L235P] | 0.515 | 0.64 | 0.447 | 0.715 | 0.519 | 1.45 | 0.475 | 0.759 | 1.04 | 1.68 | 1.62 | 1.07 | 0.626 | 1.28 | 0.606 | 0.884
29 | HELFVYKCDEN [DOCK3_Y548_YF] | 0.995 | 1.13 | 1.54 | 1.13 | 1.19 | 2.31 | 0.76 | 1.15 | 1.53 | 2.21 | 1.95 | 1.5 | 1.18 | 1.14 | 0.561 | 0.698
30 | KVALPYKPFFF [POLE_Y100_YF] | 0.375 | 0.42 | 0.44 | 0.715 | 0.557 | 0.743 | 0.41 | 0.455 | 0.537 | 0.855 | 0.674 | 0.656 | 0.547 | 1.3 | 1.12 | 1.28
31 | ETDSEYVKLSK [C7orf57_Y70_A74S] | 0.516 | 0.524 | 0.533 | 0.63 | 0.604 | 1.01 | 0.435 | 0.499 | 0.667 | 1.13 | 1.01 | 0.695 | 0.451 | 1.1 | 0.753 | 0.588
32 | LLIMEYAKFGS [RET_Y806_V804M_YF] | 0.772 | 1.07 | 1.09 | 0.968 | 1.59 | 1.34 | 0.701 | 0.909 | 0.697 | 1.77 | 2.11 | 1.51 | 1.96 | 1.35 | 0.929 | 0.655
33 | PLGKDYRKVEG [MAP1A_Y1909_A1912V] | 0.518 | 0.561 | 0.74 | 0.768 | 0.513 | 1.27 | 0.741 | 0.456 | 0.685 | 0.883 | 1.52 | 1.66 | 1.53 | 0.556 | 0.385 | 0.706
